# Laboratory results taken from patent US20030096272A1, “Genes regulated by peroxisome proliferator-activated receptor gamma agonist” (Incyte Genomics, Inc., priority 2001, published 2003).
# B1: 5425777 (nucleic acid, listed as Homo sapiens)
# DNA: CCCAGACACAAGTCTTCACTCCTTCCTGCGAGCCCTGAGGAAGCCTTCTTTCCCCAGACATGGCCAACAAGGGTCCTTCCTATGGCATGAGCCGCGAAGTGCAGTCCAAAATCGAGAAGAAGTATGACGAGGAGCTGGAGGAGCGGCTGGTGGAGTGGATCATAGTGCAGTGTGGCCCTGATGTGGGCCGCCCAGACCGTGGGCGCTTGGGCTTCCAGGTCTGGCTGAAGAATGGCGTGATTCTGAGCAAGCTGGTGAACAGCCTGTACCCTGATGGCTCCAAGCCGGTGAAGGTGCCCGAGAACCCACCCTCCATGGTCTTCAAGCAGATGGAGCAGGTGGCTCAGTTCCTGAAGGCGGCTGAGGACTATGGGGTCATCAAGACTGACATGTTCCAGACTGTTGACCTCTTTGAAGGCAAAGACATGGCAGCAGTGCAGAGGACCCTGATGGCTTTGGGCAGCTTGGCAGTGACCAAGAATGATGGGCACTACCGTGGAGATCCCAACTGGTTTATGAAGAAAGCGCAGGAGCATAAGAGGGAATTCACAGAGAGCCAGCTGCAGGAGGGAAAGCATGTCATTGGCCTTCAGATGGGCAGCAACAGAGGGGCCTCCCAGGCCGGCATGACAGGCTACGGACGACCTCGGCAGATCATCAGTTAGAGCGGAGAGGGCTAGCCCTGAGCCCGGCCCTCCCCCAGCTCCTTGGCTGCAGCCATCCCGCTTAGCCTGCCTCACCCACACCCGTGTGGTACCTTCAGCCCTGGCCAAGCTTTGAGGCTCTGTCACTGAGCAATGGTAACTGCACCTGGGCAGCTCCTCCCTGTGCCCCCAGCCTCAGCCCAACTTCTTACCCGAAAGCATCACTGCCTTGGGCCCCTCCCTCCCGGCTGCCCCCATCACCTCTACTGTCTCCTCCCTGGGCTAAGCAGGGGAGAAGCGGGCTGGGGGTAGCCTGGATGTGGGCCAAGTCCACTGTCCTCCTTGGCGGCAAAAGCCCATTGAAGAAGAACCAGCCCAGCCTGCCCCCTATCTTGTCCTGGAATATTTTTGGGGTTGGAACTCAAAAAAAAAAAAGGGGGGGCCCGCGCGTTTATTGTGCCTTCTTCAGACCCCGGGAATTAATTCCCGACCGGATACCTTGGCAGCTATATTGAATCTTGCAACCGTTTAACTTACCATTTTTTGCCTCAGCCCGGTGTTTCTGGCTTGTTTGGGAAGCCGGTTGGTCCTCTTTGGTGTTCCGTTCCACGCGAAAAGGTTTAGACAGACTTCCGGAACACTTCCGGGTTCCCCAGACACCAGCTTCTTTGTTAGGGTCCCCACCGGTCATTGTCGCCCGGATCGCTTGGTCCACCGGCGCGGTTAACGTTTTTTCAGCCGGGCGATGTCA
# modifications: Incyte ID No 5425777CA2
# Experiments:
# [1] = tested on: adipocytes obtained from normal donors; assay: microarray differential expression in PPARγ agonist-treated adipocytes, normal donor; type: cell-based, human
# From the text: (§1) Incyte clones represent template sequences derived from the LIFESEQ GOLD assembled human sequence database (Incyte Genomics). In cases where more than one clone was available for a particular template, the 5′-most clone in the template was used on the microarray. The HUMAN GENOME GEM series 1-5 microarrays (Incyte Genomics) contain 45,320 array elements which represent 22,632 annotated clusters and 22,688 unannotated clusters. For the UNIGEM series microarrays (Incyte Genomics), Incyte clones were mapped to non-redundant Unigene clusters (Unigene database (build 46), NCBI; Shuler (1997) J Mol Med 75:694-698), and the 5′ clone with the strongest BLAST alignment (at least 90% identity and 100 bp overlap) was chosen, verified, and used in the construction of the microarray. The UNIGEM V 2.0 microarray (Incyte Genomics) contains 8,502 array elements which represent 8,372 annotated genes and 130 unannotated clusters.
# (§2) To construct microarrays, cDNAs were amplified from bacterial cells using primers complementary to vector sequences flanking the cDNA insert. Thirty cycles of PCR increased the initial quantity of cDNAs from 1-2 ng to a final quantity greater than 5 μg. Amplified cDNAs were then purified using SEPHACRYL-400 columns (APB). Purified cDNAs were immobilized on polymer-coated glass slides. Glass microscope slides (Coming, Corning N.Y.) were cleaned by ultrasound in 0.1% SDS and acetone, with extensive distilled water washes between and after treatments. Glass slides were etched in 4% hydrofluoric acid (VWR Scientific Products, West Chester Pa.), washed thoroughly in distilled water, and coated with 0.05% aminopropyl silane (Sigma-Aldrich) in 95% ethanol. Coated slides were cured in a 110° C. oven. cDNAs were applied to the coated glass substrate using a procedure described in U.S. Pat. No. 5,807,522. One microliter of the cDNA at an average concentration of 100 ng/ul was loaded into the open capillary printing element by a high-speed robotic apparatus which then deposited about 5 nl of cDNA per slide.
# (§3) Microarrays were UV-crosslinked using a STRATALINKER UV-crosslinker (Stratagene), and then washed at room temperature once in 0.2% SDS and three times in distilled water. Non-specific binding sites were blocked by incubation of microarrays in 0.2% casein in phosphate buffered saline (Tropix, Bedford Mass.) for 30 minutes at 60° C. followed by washes in 0.2% SDS and distilled water as before.
# (§4) Primary cultures of preadipocytes were obtained from subcutaneous fat obtained from a person with a body mass index (BMI; kg/m^2) of 23.59 and from a person with a BMI of 32.47. Individuals with a BMI between 18.5 and 24.9 are classified as ‘healthy’ or normal, whereas individuals with a BMI between 30.0 and 39.9 are classified as obese. Preadipocytes were cultured in F-10 medium with 10% fetal bovine serum. Confluent cells were either treated with 1 μM rosiglitazone (BRL49653), 0.2 mM IBMX, and 100 nM human insulin for 3 days; or remained untreated. Thereafter, the cells were cultured in F-10 medium with 3% fetal bovine serum and 100 nM human insulin. Differentiated adipocytes were compared to untreated preadipocytes maintained in culture in the absence of inducing agents. Between 80% and 90% of the preadipocytes observed under a phase contrast microscope had differentiated to adipocytes by day 15. Cells were harvested at 1, 2, 8, and 15 days post treatment.
# (§5) Cells were harvested and lysed in 1 ml of TRIZOL reagent (5×10^6 cells/ml; Invitrogen). […]
# [2] = tested on: adipocytes obtained from obese donors; assay: microarray differential expression in PPARγ agonist-treated adipocytes, obese donor; type: cell-based, human
# From the text: as §1, §2, §3, §4, §5
Molecule,regulation in response to PPARγ agonist (in words) ([1]; adipocytes from normal donors),regulation in response to PPARγ agonist (in words) ([2]; adipocytes from obese donors),"differential expression, Normal 1 d ([1]; normal-donor adipocytes treated with PPARγ agonist (1 μM rosiglitazone, 0.2 mM IBMX, 100 nM insulin), 1 day, relative to untreated time-matched controls, negative = downregulation)","differential expression, Normal 2 d ([1]; normal-donor adipocytes treated with PPARγ agonist (1 μM rosiglitazone, 0.2 mM IBMX, 100 nM insulin), 2 days, relative to untreated time-matched controls, negative = downregulation)","differential expression, Normal 8 d ([1]; normal-donor adipocytes treated with PPARγ agonist (1 μM rosiglitazone, 0.2 mM IBMX, 100 nM insulin), 8 days, relative to untreated time-matched controls, negative = downregulation)","differential expression, Normal mean ([1]; normal-donor adipocytes treated with PPARγ agonist, averaged over 1, 2, 8 and 15 days)","differential expression, Obese 1 d ([2]; obese-donor adipocytes treated with PPARγ agonist (1 μM rosiglitazone, 0.2 mM IBMX, 100 nM insulin), 1 day, relative to untreated time-matched controls, negative = downregulation)","differential expression, Obese 2 d ([2]; obese-donor adipocytes treated with PPARγ agonist (1 μM rosiglitazone, 0.2 mM IBMX, 100 nM insulin), 2 days, relative to untreated time-matched controls, negative = downregulation)","differential expression, Obese 8 d ([2]; obese-donor adipocytes treated with PPARγ agonist (1 μM rosiglitazone, 0.2 mM IBMX, 100 nM insulin), 8 days, relative to untreated time-matched controls, negative = downregulation)","differential expression, Obese mean ([2]; obese-donor adipocytes treated with PPARγ agonist, averaged over 1, 2, 8 and 15 days)"
"SEQ ID NO:29: cDNA, template 235636.1, represented by clone 3075694; integrin binding protein Del-1",unchanged,downregulated,,,,,,,,
B1,,,−2.16 log base 2,−3.01 log base 2,−0.23 log base 2,−1.80 log base 2,−2.55 log base 2,−3.20 log base 2,−2.02 log base 2,−2.59 log base 2
